Laboratory results published in PMC6468313, “Role of Cdc23/Mcm10 in generating the ribonucleotide imprint at the mat1 locus in fission yeast” (Nucleic Acids Research, 2019).

Target: T1, GST-Cdc23 (S. pombe, UniProt O42709 1-593)
T1 construct: Cdc23/Mcm10 of S. pombe; also called GST-tagged Cdc23; source: E. coli Codon Plus, from pGEX2T, induced with 1 mM IPTG for 16 h at 18°C; ultrafilter-concentrated extract (pull-down); partially purified (far-western)
T1 sequence (looked up): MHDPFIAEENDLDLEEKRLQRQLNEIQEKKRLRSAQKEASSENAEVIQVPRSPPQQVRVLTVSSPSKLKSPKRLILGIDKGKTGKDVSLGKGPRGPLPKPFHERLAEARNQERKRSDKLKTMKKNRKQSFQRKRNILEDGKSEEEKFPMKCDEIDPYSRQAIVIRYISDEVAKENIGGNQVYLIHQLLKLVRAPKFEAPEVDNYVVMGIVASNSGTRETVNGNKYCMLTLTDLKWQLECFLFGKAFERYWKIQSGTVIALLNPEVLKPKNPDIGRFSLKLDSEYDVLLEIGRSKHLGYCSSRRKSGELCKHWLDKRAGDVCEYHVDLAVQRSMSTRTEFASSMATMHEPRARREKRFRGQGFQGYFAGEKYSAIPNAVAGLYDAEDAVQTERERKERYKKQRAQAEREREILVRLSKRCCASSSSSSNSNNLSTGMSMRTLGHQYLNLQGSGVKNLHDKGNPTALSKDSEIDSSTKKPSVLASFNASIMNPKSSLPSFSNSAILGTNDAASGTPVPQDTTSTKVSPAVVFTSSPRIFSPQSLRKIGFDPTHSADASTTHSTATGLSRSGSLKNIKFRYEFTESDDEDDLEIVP
Experiment: far-Western, overlay or dot blot; partially purified GST and GST-Cdc23 resolved by SDS-PAGE, blotted and progressively renatured; incubated with purified extracts from E. coli expressing MBP, MBP-Polα^+ or MBP-Polα^Swi7-1; probed with anti-Polα
Settings: both partners purified

B1: MBP-Polα^Swi7-1 (natural protein, S. pombe, UniProt P28040 1-1405, looked up)
chain: MRKRNAGIKPSQRFAELRALRQAGKTRASTYESKENEELYDNVSEEEYRKIVRQRLDEDDFVVDDNGAGYVDNGYDEWDQSHYSDEDDENEKGSSGRKRKKSKNVLAEPNQQIGAFFKANAIQPASRIANRKNNEKEDEFMAEILGSIDQDIPERLSTKKGNRSHTTSNAKRRSQKAASSISTTNVVSSDPKKYIPETVPSTPQPASSLPIPSSPPAALETEENVDSQPMELDEPELPVGSDAPIIDVEESIAMKPLMSHDQVDDTASLSKATISQQPLSPMTPLSSELDVSAFSEINSKIKNVDVPASSYSSPISKVSPSDVTEEDGSLFFFWMDYTEMYGSLCLFGKVYDKATKQYVSCFLKVDGIMRSLYFLPRPSSSSVSEDSIAAQTKDVYDEVANLLSKRGVKEWKSRVSKYKYAFELEDVPRTADYLEVIYSYSYPALPTDLTGSSFSHVFGTNTALFEQFVLSRRVMGPCWLKIQQPNFDAVKNASWCRVEIGCSSPQNISVSFEKNEITSKTPPMTVMSLAFRTLINKEQNKQEVVMISARIFENVDIEKGLPANDMPSYSFSLIRPLKQIFPNGFEKLARQHKSSIFCERSEVSLLNNFLNKVRTYDPDVYFGHDFEMCYSVLLSRLKERKIHNWSSIGRLRRSEWPRSFNRSSQQFVEKQIIAGRLMCDLSNDFGRSMIKAQSWSLSEIVLKELDIKRQDINQEKALQSWTDTAHGLLDYLVHCEIDTFFIAAVAFKIQMLQLSKNLTNIAGNSWARTLTGTRAERNEYILLHEFKKNGYIVPDKQQSIRRHAEAFGAEDGLQEESLGKKKDKYKGGLVFEPQKGLYETCILVMDFNSLYPSIIQEYNICFTTVDRSPSNSDSDDQIPDTPSASANQGIFPRLIANLVERRRQIKGLLKDNSATPTQRLQWDIQQQALKLTANSMYGCLGYTKSRFYARPLAVLITYKGREALMNTKELADQMGLQVIYGDTDSVMLNTNVTDKNHALRIGNEFKEKVNERYSKLEIDIDNVYQRMLLHAKKKYAALQLDSQGKPNLDVKGLDMKRREFCTLAKEASKFCLDQILSGELTETVIENIHSYLMDFSEKMRNGKFPANKFIIFNRLEKNPEDYPNGKTMPFVQVALKKKARGENVRVGDVIPFIIAGSDADGHPADRAYSPQEIMNTNSTLVIDYNYYLSHQILPPIERVIAPIEGTNRARLAECLGLDARKYYSHETSESSAFQRYESTLTDDQCFINVSPLLLKCPSCNATSFSLRSVKSLKETLYANTVECDCGYEYSDFTIILQFSSQLRDFINLYYEGILVCDDSSCGNRTRQMSVYGKRCCNKSCRGSVHFEYNDEQLYNQIKFLLKAVQTTTGATRNGIIRCNAINKNISRIMNKNAREFVDMGLIFSS
notes: catalytic subunit of DNA polymerase α (Swi7) of S. pombe with the swi7-1 mutation G1116E; also called MBP-tagged swi7-1/polα; Polα^7-1; source: E. coli, from pMALp2, induced with 1 mM IPTG for 8 h at 25°C; purified on amylose resin (far-western)
- fold weaker interaction than with Polα^+: ~3 fold
